This is an account of results in the supplement of paper PMC9170038.

In the series the test system is MS2 coat protein. Briefly: apparent KD of MS2 coat protein; designed switch direction (-1 OFF switch, 1 ON switch): -1; higher = weaker reporter binding. An outline of the steps:
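RNA switches sharing common flanks were transcribed by stalled E. coli RNA polymerase on Illumina chips. A doubling series of SNAP-549-labelled MS2 coat protein, from 0.7 or 1.5 nM to 3 µM, was applied in Tris-HCl pH 7.5 buffer with KCl, MgCl2, BSA, DTT, tRNA and Tween-20. Each step lasted 0.8–1.5 h at the bottom of the series and 10–20 min at the top. Normalised cluster fluorescence was curve-fitted, giving apparent KD as the per-design median over clusters.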

Where [1] appears, read: input ligand: microRNA oligo, concentration not stated.
Where [2] appears, read: Eterna round: R95, input ligand: microRNA oligo, concentration not stated.

On to “UAUAUAUAGUAAGGAUAUGUAAUUACUUUAUAAACAGAAGGUACUGACAUGAGGAUCACCCAUGUUUUAGUGUGGGCAUGUAGA [JMF's solution 37] (Eterna round: R96, puzzle: Exclusion NG 1)”, for which the “apparent KD of MS2 coat protein” value under setting [1] was 70.1 nM.

In the case of “UAUAUAUAGUAAGGAUAUGUAAUUAUUUGAUAAACAGAAGGUACUGACAUGAGGAUCACCCAUGUUUUAGUGUGGGCAUGUAGA [JMF's solution 42] (Eterna round: R96, puzzle: Exclusion NG 1)”, the “apparent KD of MS2 coat protein” value under setting [1] was 72.7 nM.

For “UAUAUAUAGUAAGGAUAUGUAUAUAGUUUAUAAACAGAAGGUACUGACAUGAGGAUCACCCAUGUUUUAGUGUGGGCAUGUAGA [JMF's solution 56] (Eterna round: R96, puzzle: Exclusion NG 1)”, the “apparent KD of MS2 coat protein” value under setting [1] was 61.3 nM.

Regarding “UAUAUAUAGUAAGGAUAUGUAUAUAUUUAAUAAACAGAAGGUACUGACAUGAGGAUCACCCAUGUUUUAGUGUGGGCAUGUAGA [JMF's solution 63] (Eterna round: R96, puzzle: Exclusion NG 1)”, under setting [1], the “apparent KD of MS2 coat protein” value amounted to 59.9 nM.

Turning to “UAUAUAUAGUAAGGAUAUGUAUUAAUUUUAGAAACAGAAGGUACUGACAUGAGGAUCACCCAUGUUUUAGUGUGGGCAUGUAGA [JMF's solution 88] (Eterna round: R96, puzzle: Exclusion NG 1)”, the “apparent KD of MS2 coat protein” value under setting [1] worked out at 75.7 nM.

On to “UAUAUAUAGUAAGGAUAUGUAUUUAUUUAAUAAACAGAAGGUACUGACAUGAGGAUCACCCAUGUUUUAGUGUGGGCAUGUAGA [JMF's solution 19] (Eterna round: R96, puzzle: Exclusion NG 1)”, for which, under setting [1], the “apparent KD of MS2 coat protein” value stood at 66.3 nM.

In the case of “UAUAUGUCAGGAUAUCGAUUAGAACAGAAUUUAACAAUAGUCGAGAAGGGACAUGAGGAUCACCCAUGUUCAAC [JR_Ex4_Sub021] (Eterna round: R97, puzzle: Exclusion 4)”, the “apparent KD of MS2 coat protein” value runs as follows: (input ligand: FMN 200 uM) 41.7 nM; (input ligand: none) 20.5 nM.

“UAUAUGUUAGGAUAUUAGUAGUAAAUAAAUAAAAUUAUUACUGAGAAGGGACAUGAGGAUCACCCAUGUACCUC [Salish 062 v33] (Eterna round: R97, puzzle: Exclusion 4)”: the “apparent KD of MS2 coat protein” value is 21.9 nM (input ligand: FMN 200 uM) and 12.7 nM (input ligand: none).

As to “UAUGGGUGUGUGAGGAUAUACGAAGGCAGUGGCCAGUAGAAGGUACAUGAGGAUCACCCAUGUGUCCAAAAGUG [Isonge] (puzzle: Brourd's mod of Exclusion 4)”, the “apparent KD of MS2 coat protein” value under setting [2] was 13.9 nM.

Turning to “UAUGGUUAAGUCAGGAUAUACUCAUAGAAGUCUGUGUAGAAGGGACAUGAGGAUCACCCAUGUAUGGUAGUGUU [Ex4 #47] (Eterna round: R97, puzzle: Brourd's mod of Exclusion 4)”, the “apparent KD of MS2 coat protein” value runs as follows: (input ligand: FMN 200 uM) 151 nM; (input ligand: none) 159 nM.

For “UAUGUGUCAGGAUAUUAAUUAGAACAGAAUUUAACAAUAAUUAAGAAGGGACAUGAGGAUCACCCAUGUUCAUC [JR_Ex4_Sub023] (Eterna round: R97, puzzle: Exclusion 4)”, the “apparent KD of MS2 coat protein” value stood at 27.9 nM (input ligand: FMN 200 uM) and 23.3 nM (input ligand: none).

On to “UAUUACCUAGGAUAUACAUGAGGAUCACCCAUGUCACGGGUCAACUUGUCCUAUGCGUGUAGAAGGAGGGACCC [JL Ceriza mod 6] (Eterna round: R96, puzzle: Exclusion 3)”, for which the “apparent KD of MS2 coat protein” value worked out at 25 nM (input ligand: FMN 200 uM), 16.5 nM under setting [1] and 25.4 nM (input ligand: none).

“UAUUACCUAGGAUAUACAUGAGGAUCACCCAUGUCACGGGUCAACUUGUCCUAUGCGUGUAGAAGGAGGGACCC [JL Ceriza mod 6] (puzzle: Exclusion 3)”: the “apparent KD of MS2 coat protein” value under setting [2] is 18.9 nM.

For the sequence “UAUUACUCAGGAUAUAUGAUGUGAAACAUGAGGAUCACCCAUGUAAUAUUAUGGAUGUAAAUAGAAGGGAGAUUAU [Mat - Exclusion 5 - JL mod - D19] (puzzle: Exclusion 5)”, the “apparent KD of MS2 coat protein” value is, setting by setting: (Eterna round: R95, input ligand: FMN 200 uM) 49.2 nM; under setting [2], 51.8 nM; (Eterna round: R95, input ligand: none) 64.6 nM.
